Assay results as given in patent publication US20220041702A1 (Innovent, published 2022).
Each block holds one binder with its values, some of them ahead of it.

Assays:
[1] = target: T1, human OX40 expressed on the surface of cells (CHO cells overexpressing human OX40) (human, UniProt P43489 29-277); test: FACS on CHO-OX40 cells, PE anti-human Fc
T1 construct: whole, on cells; also called CHO-OX40 cells; CHO cells overexpressing OX40
T1 sequence (looked up): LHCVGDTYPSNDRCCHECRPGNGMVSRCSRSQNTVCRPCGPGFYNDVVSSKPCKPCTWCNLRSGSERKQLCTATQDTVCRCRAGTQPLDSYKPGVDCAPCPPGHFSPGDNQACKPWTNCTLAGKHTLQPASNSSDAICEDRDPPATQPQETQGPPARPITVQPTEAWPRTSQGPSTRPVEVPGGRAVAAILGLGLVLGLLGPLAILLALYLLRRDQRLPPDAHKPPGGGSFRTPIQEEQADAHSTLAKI

[2] = target: T2, human OX40-his (human, UniProt P43489 29-216); test: ForteBio Octet BLI, antibody on AHC tip, human OX40-His 100 nM in solution, monovalent
T2 construct: Bought soluble protein
T2 sequence (looked up): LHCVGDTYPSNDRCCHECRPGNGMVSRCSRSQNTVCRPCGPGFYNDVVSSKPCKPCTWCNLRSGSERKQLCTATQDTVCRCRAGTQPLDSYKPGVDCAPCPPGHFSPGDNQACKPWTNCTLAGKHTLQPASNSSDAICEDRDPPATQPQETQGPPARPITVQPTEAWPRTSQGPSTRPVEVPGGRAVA
Protocol: A ForteBio affinity assay was performed according to the method reported in the literature (Estep, P, et al., High throughput solution Based measurement of antibody-antigen affinity and epitope binning MAbs, 2013, 5(2): p. 270-278). Briefly, the AHC sensor (Pall, Catalog No.: 1506091) was immersed in a SD buffer (PBS 1×, BSA 0.1%, Tween 20 0.05%) and equilibrated at room temperature, half an hour before the experiment. […] The anti-human IgG Fc biosensor AHC was immersed in each well containing the antibody solution, and immersed at room temperature for 600 s to load the samples. The sensor was then washed in the SD buffer until it returned to the baseline, and then immersed in a well containing 100 μL of the antigen solution to monitor the binding of the antibody to the antigen. The sensor was then transferred to a well containing 100 μL of the SD buffer to monitor the antibody dissociation. The rotation speed was 400 rpm and the temperature was 30° C. The background-corrected association and dissociation curves were fitted by the Octet analysis software (ForteBio) to generate the binding rate constant (kₒₙ) and dissociation rate constant (kdis), which are then used to calculate the equilibrium dissociation constant (KD).

[3] = target: T3, GITR expressed on cell surface (CHO cells overexpressing GITR) (Homo sapiens (Human), UniProt Q9Y5U5 26-241); test: FACS on CHO cells overexpressing GITR, PE-conjugated anti-human Fc detection
T3 construct: also called GITR on cell surface
T3 sequence: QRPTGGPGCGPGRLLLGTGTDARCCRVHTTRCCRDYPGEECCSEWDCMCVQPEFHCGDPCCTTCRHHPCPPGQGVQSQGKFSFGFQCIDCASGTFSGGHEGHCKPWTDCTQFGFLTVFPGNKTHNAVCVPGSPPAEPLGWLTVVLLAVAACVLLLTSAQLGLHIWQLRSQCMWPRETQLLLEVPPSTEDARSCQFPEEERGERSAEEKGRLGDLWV

EC50 [1]: 2.19 nM | Kd [2]: 215 nM | koff [2]: 0.029 s⁻¹ | kon [2]: 135000 M⁻¹ s⁻¹
B1: anti-OX40 antibody ADI-20112 (antibody, human IgG1, kappa, V domains shown)
VH: QVQLVESGGGVVQPGRSLRLSCAASGFTFSSYGMHWVRQAPGKGLEWVAVISYDGSNKYYADSVKGRFTISRDNSKNTLYLQMNSLRAEDTAVYYCARGRPWYSETGTSAFDIWGQGTMVTVSS
VL: DIQMTQSPSSLSASVGDRVTITCQASQDISNYLNWYQQKPGKAPKLLIYDASNLETGVPSRFSGSGSGTDFTFTISSLQPEDIATYYCQQSDHYPTFGGGTKVEIKR
notes: also called parent anti-OX40 antibody

binding result [3]: no binding
B2: IgG1 control antibody (antibody, V domains shown)
VH: EVRLLESGGGLVQPGGSLRLSCAASGFTFSNYAMGWVRQAPGKGLEWVSAISGSGGSTYYADSVKGRFTTSRDDSKNALYLQMNSLRAEDTAVYYCARGGPGWYAADVWGQGTTVTVSS
VL: DIQMTQSPSSLSASVGDRVTITCRASQSISSYLNWYQQKPGKAPKLLIYAASSLQSGVPSRFSGSGSGTDFTLTISSLQPEDFATYYCQQADLPAFAFGGGTKVEIKR
notes: Negative control; also called IgG1 negative control
